# Tests used:
# HeLa Kyoto [1] = experiment: solubility in G1/S (NP-40 vs SDS abundance) (log2 ratio); higher = more soluble; conditions: cell cycle stage: G1/S
# HeLa Kyoto [2] = experiment: melting temperature (median over replicates), in situ; higher = more thermally stable
# HeLa Kyoto [3] = experiment: solubility change mitosis vs G1/S (difference of NP-40 vs SDS log2 ratios) (log2 ratio difference); higher = more soluble in mitosis
# HeLa Kyoto [4] = experiment: thermal stability score vs G1/S (z-score of summed log2 fold changes over temperatures); higher = more thermally stable than in G1/S
# [5] = cell cycle stage: early G1 (4.5 h after nocodazole release)
# 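Throughout, for melting temperature (median over replicates), in situ: HeLa Kyoto cells synchronized by double thymidine or nocodazole block, proteins quantified by TMT10plex mass spectrometry, three independent biological replicates.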
# 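Throughout, for solubility change mitosis vs G1/S (difference of NP-40 vs SDS log2 ratios): synchronized HeLa Kyoto cells (double thymidine block for G1/S, nocodazole release for mitosis), protein amounts in NP-40 versus SDS lysates quantified by mass spectrometry, three biological replicates.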
# 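Throughout, for solubility in G1/S (NP-40 vs SDS abundance): HeLa Kyoto cells arrested at G1/S by double thymidine block, proteins quantified by TMT10plex mass spectrometry in mild NP-40 versus SDS extracts, three biological replicates.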
# 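Throughout, for thermal stability score vs G1/S (z-score of summed log2 fold changes over temperatures): synchronized HeLa Kyoto cells, proteins quantified by TMT10plex mass spectrometry, three biological replicates, mitosis taken 0.5 h after nocodazole release, G1/S directly after double thymidine block.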
Sequence,solubility in G1/S (log2) (HeLa Kyoto [1]),melting temperature (HeLa Kyoto [2]; cell cycle stage: G1/S),melting temperature (HeLa Kyoto [2]; cell cycle stage: mitosis),solubility change mitosis (log2) (HeLa Kyoto [3]),thermal stability score (HeLa Kyoto [4]; [5]),thermal stability score (HeLa Kyoto [4]; cell cycle stage: mitosis)
MDCYTANWNPLGDSAFYRKYELYSMDWDLKEELRDCLVAAAPYGGPIALLRNPWRKEKAASVRPVLDIYSASGMPLASLLWKSGPVVSLGWSAEEELLCVQEDGAVLVYGLHGDFRRHFSMGNEVLQNRVLDARIFHTEFGSGVAILTGAHRFTLSANVGDLKLRRMPEVPGLQSAPSCWTVLCQDRVAHILLAVGPDLYLLDHAACSAVTPPGLAPGVSSFLQMAVSFTYRHLALFTDTGYIWMGTASLKEKLCEFNCNIRAPPKQMVWCSRPRSKERAVVVAWERRLMVVGDAPESIQFVLDEDSYLVPELDGVRIFSRSTHEFLHEVPAASEEIFKIASMAPGALLLEAQKEYEKESQKADEYLREIQELGQLTQAVQQCIEAAGHEHQPDMQKSLLRAASFGKCFLDRFPPDSFVHMCQDLRVLNAVRDYHIGIPLTYSQYKQLTIQVLLDRLVLRRLYPLAIQICEYLRLPEVQGVSRILAHWACYKVQQKDVSDEDVARAINQKLGDTPGVSYSDIAARAYGCGRTELAIKLLEYEPRSGEQVPLLLKMKRSKLALSKAIESGDTDLVFTVLLHLKNELNRGDFFMTLRNQPMALSLYRQFCKHQELETLKDLYNQDDNHQELGSFHIRASYAAEERIEGRVAALQTAADAFYKAKNEFAAKATEDQMRLLRLQRRLEDELGGQFLDLSLHDTVTTLILGGHNKRAEQLARDFRIPDKRLWWLKLTALADLEDWEELEKFSKSKKSPIGYLPFVEICMKQHNKYEAKKYASRVGPEQKVKALLLVGDVAQAADVAIEHRNEAELSLVLSHCTGATDGATADKIQRARAQAQKK [VPS16],-0.206,49.9 °C,50.1 °C,-0.12,0.278,0.681
MDDTLFQLKFTAKQLEKLAKKAEKDSKAEQAKVKKALLQKNVECARVYAENAIRKKNEGVNWLRMASRVDAVASKVQTAVTMKGVTKNMAQVTKALDKALSTMDLQKVSSVMDRFEQQVQNLDVHTSVMEDSMSSATTLTTPQEQVDSLIMQIAEENGLEVLDQLSQLPEGASAVGESSVRSQEDQLSRRLAALRN [CHMP1A],0.509,54.4 °C,53.9 °C,0.313,-0.982,-1.61
MDEDGLPLMGSGIDLTKVPAIQQKRTVAFLNQFVVHTVQFLNRFSTVCEEKLADLSLRIQQIETTLNILDAKLSSIPGLDDVTVEVSPLNVTSVTNGAHPEATSEQPQQNSTQDSGLQESEVSAENILTVAKDPRYARYLKMVQVGVPVMAIRNKMISEGLDPDLLERPDAPVPDGESEKTVEESSDSESSFSD [CCDC53],-0.349,52.7 °C,,-0.0689,0.159,-0.73
MDEMATTQISKDELDELKEAFAKVDLNSNGFICDYELHELFKEANMPLPGYKVREIIQKLMLDGDRNKDGKISFDEFVYIFQEVKSSDIAKTFRKAINRKEGICALGGTSELSSEGTQHSYSEEEKYAFVNWINKALENDPDCRHVIPMNPNTDDLFKAVGDGIVLCKMINLSVPDTIDERAINKKKLTPFIIQENLNLALNSASAIGCHVVNIGAEDLRAGKPHLVLGLLWQIIKIGLFADIELSRNEALAALLRDGETLEELMKLSPEELLLRWANFHLENSGWQKINNFSADIKDSKAYFHLLNQIAPKGQKEGEPRIDINMSGFNETDDLKRAESMLQQADKLGCRQFVTPADVVSGNPKLNLAFVANLFNKYPALTKPENQDIDWTLLEGETREERTFRNWMNSLGVNPHVNHLYADLQDALVILQLYERIKVPVDWSKVNKPPYPKLGANMKKLENCNYAVELGKHPAKFSLVGIGGQDLNDGNQTLTLALVWQLMRRYTLNVLEDLGDGQKANDDIIVNWVNRTLSEAGKSTSIQSFKDKTISSSLAVVDLIDAIQPGCINYDLVKSGNLTEDDKHNNAKYAVSMARRIGARVYALPEDLVEVKPKMVMTVFACLMGRGMKRV [PLS3],0.439,54.9 °C,54.5 °C,0.00363,1.07,1.27
MDEQALLGLNPNADSDFRQRALAYFEQLKISPDAWQVCAEALAQRTYSDDHVKFFCFQVLEHQVKYKYSELTTVQQQLIRETLISWLQAQMLNPQPEKTFIRNKAAQVFALLFVTEYLTKWPKFFFDILSVVDLNPRGVDLYLRILMAIDSELVDRDVVHTSEEARRNTLIKDTMREQCIPNLVESWYQILQNYQFTNSEVTCQCLEVVGAYVSWIDLSLIANDRFINMLLGHMSIEVLREEACDCLFEVVNKGMDPVDKMKLVESLCQVLQSAGFFSIDQEEDVDFLARFSKLVNGMGQSLIVSWSKLIKNGDIKNAQEALQAIETKVALMLQLLIHEDDDISSNIIGFCYDYLHILKQLTVLSDQQKANVEAIMLAVMKKLTYDEEYNFENEGEDEAMFVEYRKQLKLLLDRLAQVSPELLLASVRRVFSSTLQNWQTTRFMEVEVAIRLLYMLAEALPVSHGAHFSGDVSKASALQDMMRTLVTSGVSSYQHTSVTLEFFETVVRYEKFFTVEPQHIPCVLMAFLDHRGLRHSSAKVRSRTAYLFSRFVKSLNKQMNPFIEDILNRIQDLLELSPPENGHQSLLSSDDQLFIYETAGVLIVNSEYPAERKQALMRNLLTPLMEKFKILLEKLMLAQDEERQASLADCLNHAVGFASRTSKAFSNKQTVKQCGCSEVYLDCLQTFLPALSCPLQKDILRSGVRTFLHRMIICLEEEVLPFIPSASEHMLKDCEAKDLQEFIPLINQITAKFKIQVSPFLQQMFMPLLHAIFEVLLRPAEENDQSAALEKQMLRRSYFAFLQTVTGSGMSEVIANQGAENVERVLVTVIQGAVEYPDPIAQKTCFIILSKLVELWGGKDGPVGFADFVYKHIVPACFLAPLKQTFDLADAQTVLALSECAVTLKTIHLKRGPECVQYLQQEYLPSLQVAPEIIQEFCQALQQPDAKVFKNYLKVFFQRAKP [XPOT],-0.059,49.5 °C,50.1 °C,-0.226,1.65,3.04
MDETSPLVSPERAQPPDYTFPSGSGAHFPQVPGGAVRVAAAAGSGPSPPGSPGHDRERQPLLDRARGAAAQGQTQTVAAQAQALAAQAAAAAHAAQAHRERNEFPEDPEFEAVVRQAELAIERCIFPERIYQGSSGSYFVKDPQGRIIAVFKPKNEEPYGHLNPKWTKWLQKLCCPCCFGRDCLVLNQGYLSEAGASLVDQKLELNIVPRTKVVYLASETFNYSAIDRVKSRGKRLALEKVPKVGQRFNRIGLPPKVGSFQLFVEGYKDADYWLRRFEAEPLPENTNRQLLLQFERLVVLDYIIRNTDRGNDNWLIKYDCPMDSSSSRDTDWVVVKEPVIKVAAIDNGLAFPLKHPDSWRAYPFYWAWLPQAKVPFSQEIKDLILPKISDPNFVKDLEEDLYELFKKDPGFDRGQFHKQIAVMRGQILNLTQALKDNKSPLHLVQMPPVIVETARSHQRSSSESYTQSFQSRKPFFSWW [PI4K2A],0.202,53.9 °C,53.6 °C,-0.137,1.81,-1.09
MDFPCLWLGLLLPLVAALDFNYHRQEGMEAFLKTVAQNYSSVTHLHSIGKSVKGRNLWVLVVGRFPKEHRIGIPEFKYVANMHGDETVGRELLLHLIDYLVTSDGKDPEITNLINSTRIHIMPSMNPDGFEAVKKPDCYYSIGRENYNQYDLNRNFPDAFEYNNVSRQPETVAVMKWLKTETFVLSANLHGGALVASYPFDNGVQATGALYSRSLTPDDDVFQYLAHTYASRNPNMKKGDECKNKMNFPNGVTNGYSWYPLQGGMQDYNYIWAQCFEITLELSCCKYPREEKLPSFWNNNKASLIEYIKQVHLGVKGQVFDQNGNPLPNVIVEVQDRKHICPYRTNKYGEYYLLLLPGSYIINVTVPGHDPHITKVIIPEKSQNFSALKKDILLPFQGQLDSIPVSNPSCPMIPLYRNLPDHSAATKPSLFLFLVSLLHIFFK,0.0898,57.6 °C,56.3 °C,-0.0348,2.04,3.27
MDFSRNLYDIGEQLDSEDLASLKFLSLDYIPQRKQEPIKDALMLFQRLQEKRMLEESNLSFLKELLFRINRLDLLITYLNTRKEEMERELQTPGRAQISAYRVMLYQISEEVSRSELRSFKFLLQEEISKCKLDDDMNLLDIFIEMEKRVILGEGKLDILKRVCAQINKSLLKIINDYEEFSKERSSSLEGSPDEFSNGEELCGVMTISDSPREQDSESQTLDKVYQMKSKPRGYCLIINNHNFAKAREKVPKLHSIRDRNGTHLDAGALTTTFEELHFEIKPHDDCTVEQIYEILKIYQLMDHSNMDCFICCILSHGDKGIIYGTDGQEAPIYELTSQFTGLKCPSLAGKPKVFFIQACQGDNYQKGIPVETDSEEQPYLEMDLSSPQTRYIPDEADFLLGMATVNNCVSYRNPAEGTWYIQSLCQSLRERCPRGDDILTILTEVNYEVSNKDDKKNMGKQMPQPTFTLRKKLVFPSD [CASP8],0.075,48.5 °C,48.7 °C,-0.167,0.959,2
MDFTAQPKPATALCGVVSADGKIAYPPGVKEITDKITTDEMIKRLKMVVKTFMDMDQDSEDEKQQYLPLALHLASEFFLRNPNKDVRLLVACCLADIFRIYAPEAPYTSHDKLKDIFLFITRQLKGLEDTKSPQFNRYFYLLENLAWVKSYNICFELEDCNEIFIQLFRTLFSVINNSHNKKVQMHMLDLMSSIIMEGDGVTQELLDSILINLIPAHKNLNKQSFDLAKVLLKRTVQTIEACIANFFNQVLVLGRSSVSDLSEHVFDLIQELFAIDPHLLLSVMPQLEFKLKSNDGEERLAVVRLLAKLFGSKDSDLATQNRPLWQCFLGRFNDIHVPVRLESVKFASHCLMNHPDLAKDLTEYLKVRSHDPEEAIRHDVIVTIITAAKRDLALVNDQLLGFVRERTLDKRWRVRKEAMMGLAQLYKKYCLHGEAGKEAAEKVSWIKDKLLHIYYQNSIDDKLLVEKIFAQYLVPHNLETEERMKCLYYLYASLDPNAVKALNEMWKCQNMLRSHVRELLDLHKQPTSEANCSAMFGKLMTIAKNLPDPGKAQDFVKKFNQVLGDDEKLRSQLELLISPTCSCKQADICVREIARKLANPKQPTNPFLEMVKFLLERIAPVHIDSEAISALVKLMNKSIEGTADDEEEGVSPDTAIRSGLELLKVLSFTHPTSFHSAETYESLLQCLRMEDDKVAEAAIQIFRNTGHKIETDLPQIRSTLIPILHQKAKRGTPHQAKQAVHCIHAIFTNKEVQLAQIFEPLSRSLNADVPEQLITPLVSLGHISMLAPDQFASPMKSVVANFIVKDLLMNDRSTGEKNGKLWSPDEEVSPEVLAKVQAIKLLVRWLLGMKNNQSKSANSTLRLLSAMLVSEGDLTEQKRISKSDMSRLRLAAGSAIMKLAQEPCYHEIITPEQFQLCALVINDECYQVRQIFAQKLHKALVKLLLPLEYMAIFALCAKDPVKERRAHARQCLLKNISIRREYIKQNPMATEKLLSLLPEYVVPYMIHLLAHDPDFTRSQDVDQLRDIKECLWFMLEVLMTKNENNSHAFMKKMAENIKLTRDAQSPDESKTNEKLYTVCDVALCVINSKSALCNADSPKDPVLPMKFFTQPEKDFCNDKSYISEETRVLLLTGKPKPAGVLGAVNKPLSATGRKPYVRSTGTETGSNINVNSELNPSTGNRSREQSSEAAETGVSENEENPVRIISVTPVKNIDPVKNKEINSDQATQGNISSDRGKKRTVTAAGAENIQQKTDEKVDESGPPAPSKPRRGRRPKSESQGNATKNDDLNKPINKGRKRAAVGQESPGGLEAGNAKAPKLQDLAKKAAPAERQIDLQR [PDS5A],-0.0007,47.2 °C,48.7 °C,-0.126,5.43,11.2
MDGEEKTYGGCEGPDAMYVKLISSDGHEFIVKREHALTSGTIKAMLSGPGQFAENETNEVNFREIPSHVLSKVCMYFTYKVRYTNSSTEIPEFPIAPEIALELLMAANFLDC [TCEB1],0.256,52.2 °C,52.3 °C,-0.0906,-1.38,-1.62

# Source: the supplement of paper PMC5998384
